Experimental data taken from paper PMC3594189, “Cellular Catabolism of the Iron-Regulatory Peptide Hormone Hepcidin” (PLoS ONE, 2013).
No end group written: not given here.

How the values were obtained:
[1] = target: T1, ECR293 cells expressing Fpn-GFP (Mus musculus, UniProt Q9JHI9); type: cell-based; conditions: for effect of lysosomal inhibitor on degradation of both hepcidin and ferroportin: chloroquine 100 µM or bafilomycin 100 nM for 20 h after 4 h TR-Hep loading, flow cytometry
T1 construct: expressed in transfected cells; host or cells: ECR293 (ECR-Fpn) cells, ponasterone-inducible
T1 sequence (Q9JHI9 1-570): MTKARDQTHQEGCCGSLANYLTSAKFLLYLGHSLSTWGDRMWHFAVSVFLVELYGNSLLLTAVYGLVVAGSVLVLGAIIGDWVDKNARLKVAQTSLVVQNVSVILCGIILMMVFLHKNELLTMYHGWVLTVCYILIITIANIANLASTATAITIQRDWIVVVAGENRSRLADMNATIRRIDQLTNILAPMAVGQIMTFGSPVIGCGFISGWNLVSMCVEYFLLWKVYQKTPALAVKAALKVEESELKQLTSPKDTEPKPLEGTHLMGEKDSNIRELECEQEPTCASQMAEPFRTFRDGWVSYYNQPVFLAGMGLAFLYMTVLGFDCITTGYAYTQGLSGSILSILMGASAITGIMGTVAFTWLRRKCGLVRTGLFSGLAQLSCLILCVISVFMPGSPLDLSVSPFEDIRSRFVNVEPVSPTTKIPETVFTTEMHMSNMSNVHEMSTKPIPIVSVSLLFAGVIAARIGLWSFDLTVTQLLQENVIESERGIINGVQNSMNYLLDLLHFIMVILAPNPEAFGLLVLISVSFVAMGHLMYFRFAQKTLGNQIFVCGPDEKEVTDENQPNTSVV
Description: ECR-Fpn cells were plated on poly-D-lysine-coated plates in the presence of 20 µM FAC, with or without 10 µM ponasterone. After 24 h, ponasterone was washed off, and cells were loaded with 1 µg/ml TR-Hep for 4 h. After 4 h, cells were washed with PBS, fresh media was added and cells were treated with or without lysosomal inhibitors chloroquine (100 µM) and bafilomycin (100 nM). Twenty hours after the addition of inhibitors, cells were trypsinized and resuspended at 1×10^6 cells/ml, and the intensity of red and green fluorescence was analyzed by flow cytometry at UCLA Jonsson Comprehensive Cancer Center and Center for AIDS Research Flow Cytometry Core Facility (supported by NIH awards CA-16 042 and AI-28 697, the UCLA AIDS institute, and the UCLA School of Medicine). Flow cytometry was performed on FACSVantage SE sorting flow cytometer with digital electronics (Becton Dickinson, San Jose, CA) and analyzed with FACSDiva software (Becton Dickinson). Cells not induced with ponasterone were used to establish a gate to exclude background fluorescence. Loss of cellular Fpn-GFP was quantified as % of green fluorescence in induced cells not treated with hepcidin. Degradation of cellular TR-Hep was measured as % of red fluorescence in induced cells treated with TR-Hep for 4 h.

[2] = target: T1, ECR293 cells expressing Fpn-GFP; type: cell-based
Description: ECR-Fpn cells were plated on poly-D-lysine coated plates in the presence of 20 µM FAC, with or without 10 µM ponasterone, and incubated at 37°C. After 24 h, cells were washed with PBS and 1 ml of serum free media was added. The cells were treated with 5×10^5 cpm of ^125I–hepcidin for 2 h (loading period) at 37°C. After 2 h the cells were washed 3 times with DMEM/10% fetal bovine serum to remove unbound ^125I-hepcidin and 1 ml serum-free media with 20 µM FAC was added to all wells. Cells were incubated at 37°C for 5 min, 4, 8 and 24 h after loading. To prevent lysosomal acidification and proteolysis, 100 nM bafilomycin was added to assigned wells for 24 h. The supernatant was collected, its radioactivity quantified by a gamma counter, and an aliquot subjected to HPLC analysis. The cells were washed once and centrifuged for 2 min at 12,000xg through a silicone oil layer (Nyosil M25, Nye, Fairhaven, MA). The radioactivity in cell pellets was determined by gamma counting (Beckman, Fullerton, CA).
Aliquots of the supernatants were analyzed by reversed-phase high-performance liquid chromatography (RP-HPLC) on Vydac C18 column (218TP54; Waters). Fractions were eluted over 30 minutes with an acetonitrile gradient (1 fraction per minute) and their radioactivity determined by gamma counting.

[3] = target: T2, Fpn-GFP expressing ECR293 cells (ferroportin) (Mus musculus, UniProt Q9JHI9); experiment: Temperature and pH dependent 125I-hepcidin binding/internalization assay; type: cell-based
T2 construct: expressed in transfected cells; host or cells: ECR293 (ECR-Fpn) cells, ponasterone-inducible
T2 sequence (Q9JHI9 1-570): T1 sequence (Q9JHI9 1-570)
Description: ^125I-hepcidin (10^6 cpm, specific activity ∼10^7 cpm/µg) was added to ECR-Fpn cells plated on poly-D-lysine coated plates in the presence of 20 µM FAC, with or without 10 µM ponasterone. Cells were incubated with radiolabeled hepcidin at different temperatures (0, 15, 23 and 37°C) for 1 hour. For pH experiments, growth medium was replaced with media adjusted to pH of 2, 4, 5, 6, 7, 8 and 9 (without additional FAC) and radiolabeled hepcidin was added for 1 h at 37°C. Cells were washed with phosphate-buffered saline (PBS) to remove unbound radioactive hepcidin and centrifuged for 2 minutes at 12,000xg through a silicone oil layer (Nyosil M25; Nye). The radioactivity in cell pellets was determined by gamma counting. The temperature-dependence data are expressed in counts-per-minute (cpm), whereas pH-dependence data were normalized because of the variability in absolute cpm values between experiments and expressed as % of radioactivity at pH 7. The radioactivity of uninduced cells subtracted as background for each point.

[4] = cited from earlier work
Text: This study was the first to examine the fate of hepcidin from its initial binding to ferroportin to its cellular catabolism. We show here that hepcidin is internalized together with ferroportin and that both are degraded in lysosomes. Because of the small size of hepcidin (∼2.7 kD) and its weak binding to plasma proteins, glomerular filtration and proteolysis in proximal tubules is thought to be the major mechanism for hepcidin clearance from blood. Detectable concentrations of hepcidin in urine, indicative of peptide that escaped proteolysis in the proximal tubules, are consiste ...

Fpn-GFP expressing cells = target: T3, Fpn-GFP expressing cells (Mus musculus, UniProt Q9JHI9); experiment: Confocal microscopy co-localization of TR-Hep with Fpn-GFP; type: cell-based
T3 construct: expressed in transfected cells; host or cells: ECR293 (ECR-Fpn) cells, ponasterone-inducible
T3 sequence (Q9JHI9 1-570): T1 sequence (Q9JHI9 1-570)
Description: ECR-Fpn cells were plated in a 12-well plate on 12 mm poly-D-lysine coated round coverslips (Becton Dickinson, Franklin Lakes, NJ) in the presence of 20 µM ferric ammonium citrate (FAC) with or without 10 µM ponasterone. FAC is added to the medium to prevent cellular iron depletion caused by prolonged Fpn-GFP overexpression. After 24 h, ponasterone was washed off, and cells were treated with 1 µg/ml TR-Hep at 37°C protected from light. After 1 hour, cells were washed with PBS two times and the coverslip was placed on a slide, sealed with clear nail polish and immediately analyzed. Images were scanned at the UCLA CNSI Advanced Light Microscopy Facility and the BRI Cell Imaging Facility on a Leica TCS-SP MP Confocal and Multiphoton Inverted Microscope (Heidelberg, Germany) equipped with an argon laser (488 nm blue excitation: JDS Uniphase), a 561 nm (green) diode laser (DPSS: Melles Griot), and a two photon laser setup consisting of a Spectra-Physics Millenia×532 nm green diode pump laser and a Tsunami Ti-Sapphire picosecond pulsed infrared laser tuned at 768 nm for UV excitation. Images were acquired using LCS Lite software (Leica Confocal Software, Leica Microsystems, Manheim, Germany).

ferroportin = conditions: naturally occurring urinary forms; cited from earlier work

CO/C1=C\C(C)=C\[C@@H](C)[C@@H](O)[C@@H](C)C/C(C)=C/C=C/[C@H](OC)[C@@H]([C@@H](C)[C@@H](O)[C@H](C)[C@@]2(O)C[C@@H](O)[C@H](C)[C@@H](C(C)C)O2)OC1=O [bafilomycin, reference compound]
effect of lysosomal inhibitor on degradation of both hepcidin and ferroportin [1]: completely prevented the degradation | effect of bafilomycin on cellular radioactivity ([2]; 100 nM bafilomycin for 24 h after 125I-hepcidin loading, gamma counting of cell pellets): increased the retention of radioactivity in cells

CCN(CC)CCCC(C)Nc1ccnc2cc(Cl)ccc12 (stereo not drawn) [chloroquine]
effect of lysosomal inhibitor on degradation of both hepcidin and ferroportin [1]: completely prevented the degradation

Hepcidin: 25-amino acid peptide hormone, principal regulator of plasma iron concentrations; synthetic hepcidin from Peptides International
specific binding at pH lower than 6 ([3]; pH 2, 4, 5, 1 h at 37°C, uninduced-cell background subtracted): did not bind specifically | binding to ferroportin at pH 9 ([3]; pH 9 among pH 2, 4, 5, 6, 7, 8 and 9, 1 h at 37°C, normalized to pH 7): highest binding | binding to plasma proteins [4]: weak binding

TR-Hep: synthetic hepcidin labeled with Texas Red-X succinimidyl ester
co-localization of red hepcidin with green ferroportin in vesicles (Fpn-GFP expressing cells; 1 µg/ml TR-Hep, 1 h, 37°C, induced cells, confocal microscopy): nearly complete co-localization | red fluorescence in uninduced cells (Fpn-GFP expressing cells; uninduced cells treated with TR hepcidin, data not shown): no detectable red fluorescence | degradation of Fpn-GFP after TR-Hep ([1]; 24 h after addition of 1 µg/ml TR-Hep, green fluorescence by flow cytometry): nearly completely degraded

^125I-hepcidin: synthetic hepcidin with M21Y substitution iodinated with 125I (DTHFPICIFCCGCCHRSKCGYCCKT; disulfide (positions not given here); not fully specified (bridges); ends not checked; also: iodinated with 125I, site not given here; UniProt P81172 60-84, looked up, variant M21Y)
binding of 125I-hepcidin to Fpn-GFP expressing cells at temperatures below 37°C ([3]; 1 h at 0, 15, 23 and 37°C, cell-bound radioactivity by gamma counting (cpm), at least three experiments): decreased | radioactivity in cell pellets after loading [2]: almost complete loss of radioactivity

hepcidin-20: degradation product of hepcidin-25 detected in urine, truncated at the N-terminus by 5 amino acids (ICIFCCGCCHRSKCGMCCKT; disulfide (positions not given here); ends not checked; also: disulfide bridges, pairing not given here; UniProt P81172 65-84, looked up)
activity relative to hepcidin-25 (ferroportin): much less active than hepcidin-25
